Data as given in the Human Domainome abundance scans (Beltran et al. 2025).

B1: PMS1 protein homolog 1, residues 572 to 637; numbered along this chain, P54277 (parent)
chain: KKPMSASALFVQDHRPQFLIENPKTSLEDATLQIEELWKTLSEEEKLKYEEKATKDLERYNSQMKR

Variants of: B1
Experiment: abundance fitness (aPCA) (normalised: wild type 0, dead -1); higher = more abundant; growth selection in yeast, the domain comes from the species named
Conditions: Homo sapiens

Abundance fitness, by site and new letter:
M64: E -0.195; C -0.205; P -0.108
K2: Q -0.545; G -0.696; L -0.08; R -0.332; I -0.475; S -0.201
S62: H 0.021; Q -0.027; W -0.084; G -0.151; E -0.035; P -0.148; R -0.09; V -0.078; M -0.099; C 0.12
D29: N -0.119
R66: W -0.261; C -0.113; Y -0.069; L 0.012; S -0.063
A6: G -0.306; P -0.38; E -0.607; K -0.348; I -1.17; D -0.665; R -0.637
E58: K -0.043; D -0.047; I -0.179; M -0.169; Q -0.005; W -0.456; S -0.099; P -0.257
Y49: H -0.616; L -0.92; W -0.013; G -0.761; M -0.966
L37: V -0.127; S -0.083; W -0.386; G -0.175; C -0.278; M -0.319; H -0.01
A30: Q -0.439; L -0.634; E -0.414; W -0.632; G -0.401
T25: M -0.156; Q -0.143; H -0.395; A 0.042; C -0.159; F 0.201
P3: A -0.464; I -0.305; C -0.358
W38: G -0.304; L -1.01; A -0.369
F10: A -0.608; D -0.487; P -0.686; V -0.812; N -0.655; M -0.433; G -0.791; E -0.483
K46: T -0.432; V -0.431; D -0.848; R -0.058; G -0.84; A -0.395
K48: E -0.202; H -0.426; F -0.121; N -0.375; A -0.095; R -0.127
K1: R -0.216; M -0.057; G -0.225; F -0.498; C 0.184; Y -0.174
L41: Y -0.59; W -0.617; R -0.202; K -0.317; P -0.622; V -0.023; H -0.467; I -0.202
T54: C -0.164; P -0.338; K 0.046; I -0.186; S 0.015; V -0.12; A 0.035; Y -0.331
Q63: V -0.113; E -0.038; I -0.348; A 0.071; S -0.207
V11: I -0.432
S7: Q 0.176; R 0.121; E 0.017; F -0.108; K 0.069; N -0.055
T40: K -0.099; W -0.253; S -0.128; R -0.125; V -0.239; I -0.165; P -0.537; D -0.101
L32: E -0.144; V -0.117; P -0.349; D -0.283; I -0.172; W -0.156; S -0.18; T -0.246
L27: P 0.057; C -0.384; M -0.089
L57: T -0.19; W -0.103; S -0.135; I -0.136; G -0.14; M 0.03; H -0.112; E -0.066
E44: R -0.124; I -0.345; Y -0.317; H -0.071; F -0.284; D -0.081; Q -0.142; V -0.113; A -0.077; C -0.155; N -0.385
T31: S -0.335; R -0.089; E -0.142; M -0.516; L -0.433; P -0.599
M4: T -0.05; Y -0.091; Q 0.043; K 0.057
A8: R -0.119; W -0.347; E 0.147; D -0.162
Y60: E -0.103; A -0.178; L -0.186; T -0.039; I -0.315; P -0.109; S 0.04
L9: G -0.308; M -0.167; S -0.254; V -0.2; K -0.044; R -0.017
K55: G -0.137; S -0.067; R -0.076; C -0.086
E35: W -0.774; A -0.2; K -0.26; R -0.142; F -0.251
D56: A -0.049; K -0.353; S -0.035; H -0.172; W -0.258; P -0.423; F -0.244; E 0.104; C -0.163
D13: G -0.844; C -0.66
E43: G -0.09; F -0.234; H -0.087; M -0.039; V -0.026; P -0.086; T 0.032; K -0.236; L -0.06; S 0
E45: M -0.21; L -0.262; F -0.606; T -0.214; S -0.198; D -0.133; N -0.476; C -0.327; H -0.123
P16: Q -0.041; S -0.214; T -0.159; M -0.447; I -0.224; Y -0.198; L -0.401
S26: R -0.282; E -0.317; W -1.3; N -0.167
A53: V -0.26; W -0.79; I -0.834; P -0.377; E -0.227; M -0.387; Q -0.48; T -0.345
K65: C -0.203; Y -0.207; E 0.073; V -0.068; F -0.276; W -0.502; Q 0.02; N -0.163; L 0.029; G -0.497
S42: T -0.078; D -0.045; Y -1.21; E -0.101; M -0.813; L -0.801; A -0.085; G -0.165; Q -0.322
R59: T -0.063; V -0.021; N -0.169; E 0.05; S -0.017; C -0.121; I 0.088; A 0.05; M -0.046; K -0.171
R15: E -0.409; D -0.729; V 0.033
S5: E -0.031; W -0.874; C -0.333
K52: V -0.229; I -0.664; A -0.101; Y -0.302; W -0.33; C -0.076; M 0.102; E -0.059; L -0.178; D -0.357
K39: E -0.095; H -0.205; I -0.535; Y -0.104; A -0.062; D -0.308; C -0.156; G -0.875; P -0.252
L47: P -0.975; D -0.157; W -0.141; M 0.017
Q33: A -0.05; S -0.23; R -0.229; E -0.124; D -0.24; T -0.454; M -0.283
N61: L -0.333; I -0.464; K 0.007; E 0.047; F -0.515; Q -0.098; P -0.197; S -0.092; M -0.128; D -0.136; C -0.521
E51: M -0.132; W -0.286; L -0.048; Q -0.043; F -0.224; I -0.127; C -0.215; K -0.156; S -0.158; H -0.131; V -0.088; R -0.048
